Assay: yeast display, Sf9 membrane polyspecificity reagent, FACS + sequencing; frameworks hold sequencing errors
Procedure, shortened: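 Nanobodies from a synthetic yeast display library (Saccharomyces cerevisiae BJ5465), induced 36–48 hours with galactose, were stained 1 hour at 4 °C with 10% biotinylated, detergent-solubilized Sf9 membrane reagent, enriched on streptavidin microbeads, then FACS-sorted. Anti-HA (expression) and streptavidin (reagent binding) fluorescence set low and high (top ~1%) gates. Polyreactivity labels come from the gate of origin. Genes were colony-PCR amplified, MiSeq 2 × 250 sequenced and filtered by CDR length.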

Sequence	polyreactivity (PSR sort gate)
QVQVVESGGGLVQAGCSLRLSCAASGSTFQANDMGLYRQAPGKERELVAAISTGGSSTYYADSVKGRFTISRDNEKNTFFLQMNSLKPEDTAVYYCAVDGLGGREGYWGQGTQVTVSS	high polyreactivity
QVQVVESGGGLVQAGGSLRLICAASGRIFDSNAMGWYRQEPVKERELVARIDPGDDTNSADSVKGRFTISRDNAKNTLYLQMNSLKPEDTAVYYCATDPDYVLYRTAYYEYDYWGQGTQVTVSS	low polyreactivity
QVQVVESGGGLVQAGGSLRLSCAASGFTFPYYALGLYRQAPGKERELVAAITTGGSTYYSDSVKGRFTISRDNAKNTVYLQMNSLKPEDTAVYYCATGPSLWYRSSFRGEGDYWGQGTQVTVSS	low polyreactivity
QVQVVESGGGLVQAGGSLRLSCAASGLIFVYYAMGWYRQAPGKERELVAGITRGGGTNYADSVKGRFTISRDNAKNSFYLQMNSLKPEDTAVYYCAADDLPGMDYWGQGTQVTVSS	low polyreactivity
QVQVVESGGGLVQAGGSLRLSCAASGRIFNRNAMGWYRQAPGKERELVAAITRGGRTNYADSVKGRFRISRDNAQNTVYLQMNSLKPEDTAVYYCAAAYYGSHGRYDYWGQGTQVTVSS	high polyreactivity
QVQVVESGGGLVQAGGSLRLSCAASGRIFYVYAMGWYRQAPGKERELVAAITISGGSTYYADSVKGRFTISRDNAKNTVYLQMNSLKPEDTAVYYCATDRSSHWYDYWGQGTQVTVSS	low polyreactivity
QVQVVESGGGLVQAGGSLRLSCAASGRTFYPYAMGWYRQAPGKERELVAAISSSGGSTYYADSVKGRFTISRDNAKNTDYLPMNSLKPEDTAVYYCAAVASKYKYTGGMDYWGQGTQVTVSS	high polyreactivity
QVQVVESGGGLVQAGGSLRLSCAASGSIFDRNAMGWYRKAPGKERELVAGISRSGGSTNYADSVKGRFTISRDNAKNPVYLQMNSLNPEDTAVYYCAASRVVWVGRPWYQVRGDYWGQGTQVTVSS	high polyreactivity
QVQVVESGGGLVQAGGSLRLSCAASGSIFPVYAMGWYRQAPGKERELVAAISSGGSTNYADSVKGRFTISRDNAKNTVYLQRNSLKPEDTAVYYSARRWYYVRHGYWGQGTQVTVSS	high polyreactivity
QVQVVESGGGLVQAGGSLRLSCAASGSIFRDNAMGCYRQAPGKERELVASIRSSGGRTYYADSVKGRFTISRDNAKNTVYLQMNSLKPEDTAVYYCARRWYPVTPYARMYYWGQGTQVTVSS	low polyreactivity
QVQVVESGGGLVQAGGSLRLSCAASGSTFEYNAMGWYRQAPGKERELVASSTNYADSVKGRFTISRDNATNTVYLKMNSLKPEDTAVYYCAREQGVNRNHDYWGQGTQVTVSS	low polyreactivity
QVQVVESGGGLVQAGGSLRLSCAASGSTFSWYAIGWYIQAPGKDRELVARISSGDRTNYADSVKGRFTITRDNAKNNVYLEMNSQKPEDTAVYYCNADYGQPSYYDDGDYWGQGTQVTVSS	low polyreactivity
QVQVVESGGGLVQAGGSLRLSCAGSGSIFYFYAMGWSRQAPGKARELVATITSGGRTYYADSVKGRFTISRDNAKNTVYLQMISLKPEDTAVYYCNSRPVSYRYSSYIFNYWGQGTQVTVSS	high polyreactivity
QVQVVESGGGLVQEGGSLRLSCSASGRIFGVNAMGWYRKAPGKERELFAAISRSGGSTYYADSVKGRFTISRDNEKNTVYLQMNSLNPEDTAVYYCAAGGRRYDDDYWGQGTQVTVSS	high polyreactivity
QVRLLETGGGLVQAGGSLRLSCAPSGSTFTDYDMGWYRPAPGKERELVAAITSGGSTNYADSVKGSFTISRDNAKNTVYLQMNRLKPEDTAVYYCAASYWDTEPGYREYDYWGQGTLVTVSS	low polyreactivity
QVRLQESGGGLVQAGGSLRLSCAASGSISLTYYMDWSRQAPCTVREFVATITAGATTNYADSVKGRFTISRDNAKNTVYPQMNSLKPEDTEVYYSAVRAEHQVTLIYLGQGTQVTVSS	low polyreactivity
QVRLVESGGGLVQAGGSLRLSCAASGRIFGYYTMGWYRQAPGKERELVADNNRDGSTYADSVKGRFTLSRDNAKNTVYLQMNSLKPEDTAVYYCNAQYDSAYGLGFFIGYFSQYDYWGQGTQVTVSS	low polyreactivity
QVRLVESGGGLVQAGGSLRLSCAASGRIFVYNAMGWYRQPPGKERELVASISWSGDSTYADSVKGRFTISRDNAKNTVYLQMNSLKPEDTAVYYCAAYSQADYQNMDYWGQGTQVTVSS	low polyreactivity
QVRLVESGGGLVQAGGSLRLSCAASGSIFYFNAMGWYRQAPGKERELVATIRYRGGRTYADSVKGRFTISRDNAKNTVYLQMNSLKPEDTAVYFCNTYARYAYLTGRMDYWGQGTQVTVSS	high polyreactivity
QVRLVESGGGLVQAGGSLRLSCAASGSTFNNYDMGWYRQAPGKERELVAAYADSVKGRFTISRDNAKNTVYLQMNRLKPEDTADYYCAAVREKTLYYLSRFDYWGQGTQVTVSS	low polyreactivity
QVRLVESGGGLVQAGGSLRLSCAASGSTFQINAMGWYRQAPGKEREFVAAITVSSGSTYYADSVKGRFTISRDNAKNTVYLQMNSLKPEDTAVYYCAATSKPLGLQTYGYWGQGTQVTVSS	low polyreactivity
QVRLVESGGGLVQAGGSLRLSCADSGSTFTTYAIGWYRQEPGKERELVAAISSGGDTKYADSVKGRFTISRDNAKNTVYLQMNSLKPEDTAVYYWNVVSFRYYYKYGYCGQGTQVTVSS	high polyreactivity
QVTLVESGGGLVQAGGSLRLSCAASVLIFYSYAMGWYRQAPGKERELVAAISSGTRTYYADSVKGRFTISRDNAKNTVYLQMNSLKPEDTAVYYCAAVDAHKKRYPPSGRLYGYWGHGTQVTVSS	high polyreactivity
WLLLMGWYRQPPGEERELVAGINDGASTNDADSVKGRFTISRDNARNTVYLKMNSLKPGDTAVYYCAGWQPVLIWFYYWGQGTQVTVSS	high polyreactivity

Reference: the nanobody polyreactivity screen of Harvey et al. (2022)
